# In the RNAGym collection of RNA variant scans (doi:10.1073/pnas.2313332121):
# Fewer inactive variants are shown than the library holds.
# B1: TPR 5TU (parent)
# chain: GGAUCUUCUCGAUCUAACAAAAAAGACAAAUCUGCCACAAAGCUUGAGAGCAUCUUCGGAUGCAGAGGCGGCAGCCUUCGGUGGCGCGAUAGCGCCAACGUUCUCAACUAUGACACGCAAAACGCGUGCUCCGUUGAAUGGAGUUUAUCAUG
# Variants of: B1
# Test: polymerase ribozyme fitness, log enrichment relative to wild type (log ratio); higher = more active; in vitro selection for triplet polymerase activity
# Summary of the method: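 Input and output libraries were sequenced on Illumina after a single in vitro selection round, run in triplicate on PCR-built, transcribed mutant libraries of each subunit of a heterodimeric triplet polymerase ribozyme. Selection annealed libraries to a biotinylated primer, the partner subunit and triplets, incubated them frozen at −7 °C, then gel-excised extended constructs for streptavidin-bead capture and RT-PCR. Genotypes with ≥10 input reads and ≥1 read per output were kept. Fitness is the logarithm, taken in base 2, of genotype enrichment divided by wild-type enrichment, using inverse-variance-weighted replicate averages.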
row,Variant,polymerase ribozyme fitness (log ratio)
1,GGAUCUUCUCGAUCUAACAAAAAAGACAAAUCUGCCACAAAGCUUGAGAGCAUCUUCGGAUGCAGAGGCGGCAGCCUUCGGUGGCGCAAUAGCGCCAACGUUCUCAACUAUGACACGCAAAACCCGUGCUCCGUUGAAUGGAGUUUAUCAUG [G88A G124C],≤ -4.2
2,GGAUCUUCUCGAUCUAACAAAAAAGACAAAUCUGCCACAAAGCUUGAGAGCAUCUUCGGAUGCAGAGGCGGCAGCCUUCGGUGGCGUGAUAGCGCCAACGUUCUCAACUAUGACACCCAAAACGCGUGCUCCGUUGAAUGGAGAUUAUCAUG [C87U G117C U144A],-1.27
3,GGAUCUUCUCGAUCUAACAAAAAAGACAAAUCUGCCACAAAGCUUGAGAGCAUCUUCGGAUGCAGAGGCGGCAGCCUUCGGUGGCGUGAUAGCGCCAACGUUCUCAACUAUGACACGCAAAACGCGUGCUCCGUUGAAUGUAGUUUAUCAUG [C87U G141U],0.462
4,GGAUCUUCUCGAUCUAACAAAAAAGACAAAUCUGCCACAAAGCUUGAGAGCAUCUUCGGAUGCAGAGGCGGCAGCCUUCGGUGGCGUGAUAGCGCCAACGUUCUCAACUAUGACACGCAAAACGCGUGCUCCGUUGAAUGGAGUUUAUCAUC [C87U G152C],-3.17
5,GGAUCUUCUCGAUCUAACAAAAAAGACAAAUCUGCCACAAAGCUUGAGAGCAUCUUCGGAUGCAGAGGCGGCAGCCUUCGGUGGCGUGAUAGCGCCAACGUUCUCAACCAUGACACGCAAAACGCGUGCUCCGUUGAAUGGAGUUUAUCAUG [C87U U109C],-3.46
6,GGAUCUUCUCGAUCUAACAAAAAAGACAAAUCUGCCACAAAGCUUGAGAGCAUCUUCGGAUGCAGAGGCGGCAGCCUUCGGUGGCGUGACAGCGCCAAGGUUCUCAACUAUGACACGCAAAACGCGUGCUCCGUUGAAUGGAGUUUAUCAUG [C87U U90C C99G],-3.53
7,GGAUCUUCUCGAUCUAACAAAAAAGACAAAUCUGCCACAAAGCUUGAGAGCAUCUUCGGAUGCAGAGGCGGCAGCCUUCGGUGGCGUGAUAGCGCCAACGUUCUCAACUAUGACACGCAAAACGCGUGCUCCUUUGAAUGGAGUUUAUCAUG [C87U G133U],-2.95
8,GGAUCUUCUCGAUCUAACAAAAAAGACAAAUCUGCCACAAAGCUUGAGAGCAUCUUCGGAUGCAGAGGCGGCAGCCUUCGGUGGCGCAAUAGCGCCAACGUUCUCGACUAUGACACGCAAAACGCGUGCUCCGUUGAAUGGAGUUUAUCAUG [G88A A106G],-3.55
9,GGAUCUUCUCGAUCUAACAAAAAAGACAAAUCUGCCACAAAGCUUGAGAGCAUCUUCGGAUGCAGAGGCGGCAGCCUUCGGUGGCGUGAUAGCGCCAACGUUCUCAACUAUGACACGCAAAACGCGUGCUCCGUUGAAUUGAGUUUAUCAUG [C87U G140U],-3.68
10,GGAUCUUCUCGAUCUAACAAAAAAGACAAAUCUGCCACAAAGCUUGAGAGCAUCUUCGGAUGCAGAGGCGGCAGCCUUCGGUGGCGUGAUAGCGCCAACGUUCUCAACUAUGACACGCAAAACGCGUGCUCCGUUGAAUGGAGUGUAUCAUG [C87U U145G],-1.51
11,GGAUCUUCUCGAUCUAACAAAAAAGACAAAUCUGCCACAAAGCUUGAGAGCAUCUUCGGAUGCAGAGGCGGCAGCCUUCGGUGGCGUGAUAGCGCCAACGUUCUCAACUAUGACACGCAAAACGCGUGCUCCGUUGAAUGGAGUAUAUCAUG [C87U U145A],0.0527
12,GGAUCUUCUCGAUCUAACAAAAAAGACAAAUCUGCCACAAAGCUUGAGAGCAUCUUCGGAUGCAGAGGCGGCAGCCUUCGGUGGCGCAAUAGCGCCAACGUUCUCAACUGUGACACGCAAAACGCGUGCUCCGUUGAAUGGAGUUUAUCAUG [G88A A110G],≤ -4.2
13,GGAUCUUCUCGAUCUAACAAAAAAGACAAAUCUGCCACAAAGCUUGAGAGCAUCUUCGGAUGCAGAGGCGGCAGCCUUCGGUGGCGCAAUAGCGCAAACGUUCUCAACUAUGACACGCAAAACGUUUGCUCCGUUGAAUGGAGUUUAUCAUG [G88A C96A C125U G126U],≤ -4.2
14,GGAUCUUCUCGAUCUAACAAAAAAGACAAAUCUGCCACAAAGCUUGAGAGCAUCUUCGGAUGCAGAGGCGGCAGCCUUCGGUGGCGUGAUACCGCCAACGUUCUCAACUAUGACACGCAAAACGCGUGCUCCGUUGAAUGGAGUUUAUCAUG [C87U G92C],-0.38
15,GGAUCUUCUCGAUCUAACAAAAAAGACAAAUCUGCCACAAAGCUUGAGAGCAUCUUCGGAUGCAGAGGCGGCAGCCUUCGGUGGCGUGAUAGCGCCAACGUUCUCAACUAUGACACACAAAACGCGUGCUCCGUUGAAUGGAGUUUAUCAUG [C87U G117A],-0.356
16,GGAUCUUCUCGAUCUAACAAAAAAGACAAAUCUGCCACAAAGCUUGAGAGCAUCUUCGGAUGCAGAGGCGGCAGCCUUCGGUGGCGUGAUAGCGCCAACGUUCUCAACUAUGACACGCAAAACGCGUGCUCCGUUGAAUGGAGUUUAUCAGG [C87U U151G],-3.96
17,GGAUCUUCUCGAUCUAACAAAAAAGACAAAUCUGCCACAAAGCUUGAGAGCAUCUUCGGAUGCAGAGGCGGCAGCCUUCGGUGGCGUGAUAGCGCCAACGGUCUCAACUAUGACACGCAAAACGCGUGCUCCGUUGCAUGGAGUUUAUCAUG [C87U U101G A137C],-3.73
18,GGAUCUUCUCGAUCUAACAAAAAAGACAAAUCUGCCACAAAGCUUGAGAGCAUCUUCGGAUGCAGAGGCGGCAGCCUUCGGUGGCGUGACAGCGCCAACGUUCUCAACUAUGACACGCAAAACGCGUGCUCCGAUGAUUGGAAUUUAUCAUG [C87U U90C U134A A138U G143A],≤ -4.2
19,GGAUCUUCUCGAUCUAACAAAAAAGACAAAUCUGCCACAAAGCUUGAGAGCAUCUUCGGAUGCAGAGGCGGCAGCCUUCGGUGGCGUGAUAGCCCCAACGUUCUCAACUAUGACACGCAAAACGCGUGCUCCGUUGAAUGGAGUUUAUCAUG [C87U G94C],-2.05
